Assay results reported in patent US20240358849A1 (SUZHOU FUSE BIOSCIENCES, published 2024).

T1: IL-2hex, mutant human IL-2 (deltaA1/T3A/F42A/Y45A/L72G/C125S) (human, UniProt P60568 22-153)
T1 chain: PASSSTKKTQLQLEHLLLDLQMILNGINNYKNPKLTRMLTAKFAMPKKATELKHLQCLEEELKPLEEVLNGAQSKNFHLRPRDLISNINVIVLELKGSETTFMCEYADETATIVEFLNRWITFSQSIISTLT


How the values were obtained:
[1] = biological target: human FAP expressed on cells (HEK 293T-hFAP-E5; ExpiCHO-hFAP) (human, UniProt Q12884 1-760); test: cell-based or functional assay
[2] = biological target: T1, IL-2hex, mutant human IL-2 …; test: cell-based or functional assay
[3] = biological target: T1, IL-2hex, mutant human IL-2 …; test: Affinity (nM), Table 13B
[4] = biological target: T1, IL-2hex, mutant human IL-2 …; test: BLI per 6.1.3; column head IL-2 KD
[5] = biological target: T2, human Fibroblast Activation Protein (FAP), soluble antigen (human, UniProt Q12884 26-760, biotinylated when immobilized on streptavidin sensors); test: Affinity (nM), Table 13B
T2 construct: also called hFAP; biotinylated FAP

[6] = biological target: T2, human Fibroblast Activation Protein …; test: BLI per 6.1.3
[7] = biological target: T2, human Fibroblast Activation Protein …; test: BLI, small-scale crude lysate

| Binder | EC50 of HEK-Blue IL2 assay (pM) with HEK 293T-hFAP-E5; variant as masking moiety of a configuration 3 immunoconjugate [1] [pM] | EC50 of HEK-Blue IL2 assay (pM) with HEK 293T; variant as masking moiety of a configuration 3 immunoconjugate [2] [pM] | Kd [3] [µM] | Kd [4] [µM] | Kd [5] [µM] | Kd [6] [µM] | Kd [7] [µM] |
| --- | --- | --- | --- | --- | --- | --- | --- |
| anti-IL-2/anti-FAP two-in-one antibody D029 (bispecific antibody, V domains shown) VH: EVQLVESGGGLVQPGGSLRLSCAASGFTFTWSFMSWVRQAPGKGLEWVSWIGPSGSYTDYADSVKGRFTISRDNSKNTLYLQMNSLRAEDTAVYYCARSQYGRYYSPDYYFDYWGQGTLVTVSS VL: DIQMTQSPSSLSASVGDRVTITCRASQDGGNYLNWYQQKPGKAPKLLIYGASTLYSGVPSRFSGSGSGTDFTLTISSLQPEDFATYYCQQGRTPPLTFGQGTKVEIKR | 56 | 1510 | 0.431 | 0.431 |  |  |  |
| D029HV4LV2 (bispecific antibody, V domains shown, also called Rev1-Q27G/P94Y/L96F:H1V9) VH: EVQLVESGGGLVQPGGSLRLSCAASGFTFSRFFMSWVRQAPGKGLEWVSWIGPSGLYTDYADSVKGRFTISRDNSKNTLYLQMNSLRAEDTAVYYCARSQYGRYYSPDYYFDYWGQGTLVTVSS VL: DIQMTQSPSSLSASVGDRVTITCRASGALGFYLNWYQQKPGKAPKLLIYAASSLSSGVPSRFSGSGSGTDFTLTISSLQPEDFATYYCQQGRTYPFTFGQGTKVEIKR | 40 | 6100 | 4.5 |  | 0.00051 |  |  |
| Rev1-Q27G/P94Y/L96F:H1V10 (bispecific antibody, V domains shown, H1V10 = D029 VH with T30S:W31R:S55L; also called H1V10 with D029LV2) VH: EVQLVESGGGLVQPGGSLRLSCAASGFTFSRSFMSWVRQAPGKGLEWVSWIGPSGLYTDYADSVKGRFTISRDNSKNTLYLQMNSLRAEDTAVYYCARSQYGRYYSPDYYFDYWGQGTLVTVSS VL: DIQMTQSPSSLSASVGDRVTITCRASGALGFYLNWYQQKPGKAPKLLIYAASSLSSGVPSRFSGSGSGTDFTLTISSLQPEDFATYYCQQGRTYPFTFGQGTKVEIKR | 117 | 14800 | 0.7 |  | 0.01 |  |  |
| D029 HV2LV1 (bispecific antibody, V domains shown, also called Rev1/S55L:S32F) VH: EVQLVESGGGLVQPGGSLRLSCAASGFTFTWFFMSWVRQAPGKGLEWVSWIGPSGLYTDYADSVKGRFTISRDNSKNTLYLQMNSLRAEDTAVYYCARSQYGRYYSPDYYFDYWGQGTLVTVSS VL: DIQMTQSPSSLSASVGDRVTITCRASQALGFYLNWYQQKPGKAPKLLIYAASSLSSGVPSRFSGSGSGTDFTLTISSLQPEDFATYYCQQGRTPPLTFGQGTKVEIKR | 78 | 9260 | 1.1 | 0.528 | 0.0018 | 0.00231 |  |
| D029 LV4 (Rev1:Q27G:P94Y) (bispecific antibody, V domains shown) VH: EVQLVESGGGLVQPGGSLRLSCAASGFTFTWSFMSWVRQAPGKGLEWVSWIGPSGSYTDYADSVKGRFTISRDNSKNTLYLQMNSLRAEDTAVYYCARSQYGRYYSPDYYFDYWGQGTLVTVSS VL: DIQMTQSPSSLSASVGDRVTITCRASGALGFYLNWYQQKPGKAPKLLIYAASSLSSGVPSRFSGSGSGTDFTLTISSLQPEDFATYYCQQGRTYPLTFGQGTKVEIKR |  |  |  |  |  |  | ~0.1 |
| D029 HV2LV4 (bispecific antibody, V domains shown, also called Rev1-Q27G:P94Y/S55L:S32F) VH: EVQLVESGGGLVQPGGSLRLSCAASGFTFTWFFMSWVRQAPGKGLEWVSWIGPSGLYTDYADSVKGRFTISRDNSKNTLYLQMNSLRAEDTAVYYCARSQYGRYYSPDYYFDYWGQGTLVTVSS VL: DIQMTQSPSSLSASVGDRVTITCRASGALGFYLNWYQQKPGKAPKLLIYAASSLSSGVPSRFSGSGSGTDFTLTISSLQPEDFATYYCQQGRTYPLTFGQGTKVEIKR | 43 | 5140 | 1.59 | 1.59 | 0.0015 | 0.00153 |  |
| D029 T30R:S55L/LV1 (bispecific antibody, V domains shown, also called Rev1/S55L:T30R) VH: EVQLVESGGGLVQPGGSLRLSCAASGFTFRWSFMSWVRQAPGKGLEWVSWIGPSGLYTDYADSVKGRFTISRDNSKNTLYLQMNSLRAEDTAVYYCARSQYGRYYSPDYYFDYWGQGTLVTVSS VL: DIQMTQSPSSLSASVGDRVTITCRASQALGFYLNWYQQKPGKAPKLLIYAASSLSSGVPSRFSGSGSGTDFTLTISSLQPEDFATYYCQQGRTPPLTFGQGTKVEIKR |  |  |  |  |  |  | ~0.1 |

Results, then the binder that gave them:

| EC50 of HEK-Blue IL2 assay (pM) with HEK 293T-hFAP-E5; variant as masking moiety of a configuration 3 immunoconjugate [1] [pM] | EC50 of HEK-Blue IL2 assay (pM) with HEK 293T; variant as masking moiety of a configuration 3 immunoconjugate [2] [pM] | Kd [3] [µM] | Kd [4] [µM] | Kd [5] [µM] | Kd [6] [µM] | Kd [7] [µM] | Binder |
| --- | --- | --- | --- | --- | --- | --- | --- |
| 57 | 9370 | 0.6 |  | 0.00051 |  |  | Rev1-Q27G/P94Y/L96F:H1V11 (bispecific antibody, V domains shown, H1V11 = D029 VH with W31Y:S32F:S55L; also called H1V11 with D029LV2) VH: EVQLVESGGGLVQPGGSLRLSCAASGFTFTYFFMSWVRQAPGKGLEWVSWIGPSGLYTDYADSVKGRFTISRDNSKNTLYLQMNSLRAEDTAVYYCARSQYGRYYSPDYYFDYWGQGTLVTVSS VL: DIQMTQSPSSLSASVGDRVTITCRASGALGFYLNWYQQKPGKAPKLLIYAASSLSSGVPSRFSGSGSGTDFTLTISSLQPEDFATYYCQQGRTYPFTFGQGTKVEIKR |
| 27 | 6060 | 0.419 | 0.419 | 0.002 | 0.00198 |  | D029 HV2LV2 (bispecific antibody, V domains shown, also called Rev1-Q27G:P94Y:L96F/S55L:S32F) VH: EVQLVESGGGLVQPGGSLRLSCAASGFTFTWFFMSWVRQAPGKGLEWVSWIGPSGLYTDYADSVKGRFTISRDNSKNTLYLQMNSLRAEDTAVYYCARSQYGRYYSPDYYFDYWGQGTLVTVSS VL: DIQMTQSPSSLSASVGDRVTITCRASGALGFYLNWYQQKPGKAPKLLIYAASSLSSGVPSRFSGSGSGTDFTLTISSLQPEDFATYYCQQGRTYPFTFGQGTKVEIKR |
| 35 | 7380 | 0.237 | 0.427 |  | 0.00179 |  | D029 HV3LV1 (bispecific antibody, V domains shown, also called D029L-Rev1/S55L:T30R:S32F; Rev1/S55L:T30R:S32F) VH: EVQLVESGGGLVQPGGSLRLSCAASGFTFRWFFMSWVRQAPGKGLEWVSWIGPSGLYTDYADSVKGRFTISRDNSKNTLYLQMNSLRAEDTAVYYCARSQYGRYYSPDYYFDYWGQGTLVTVSS VL: DIQMTQSPSSLSASVGDRVTITCRASQALGFYLNWYQQKPGKAPKLLIYAASSLSSGVPSRFSGSGSGTDFTLTISSLQPEDFATYYCQQGRTPPLTFGQGTKVEIKR |
| 208 | 4120 | 0.528 | 1.1 | 0.0023 | 0.0018 |  | D029 HV3LV4 (bispecific antibody, V domains shown, also called D029-Rev1:Q27G:P94Y/S55L:T30R:S32F) VH: EVQLVESGGGLVQPGGSLRLSCAASGFTFRWFFMSWVRQAPGKGLEWVSWIGPSGLYTDYADSVKGRFTISRDNSKNTLYLQMNSLRAEDTAVYYCARSQYGRYYSPDYYFDYWGQGTLVTVSS VL: DIQMTQSPSSLSASVGDRVTITCRASGALGFYLNWYQQKPGKAPKLLIYAASSLSSGVPSRFSGSGSGTDFTLTISSLQPEDFATYYCQQGRTYPLTFGQGTKVEIKR |
| 145 | 4820 | 0.199 |  | 0.062 |  |  | D029HV6LV2 (bispecific antibody, V domains shown, also called Rev1-Q27G:P94Y:L96F/S55L:S32A) VH: EVQLVESGGGLVQPGGSLRLSCAASGFTFTWAFMSWVRQAPGKGLEWVSWIGPSGLYTDYADSVKGRFTISRDNSKNTLYLQMNSLRAEDTAVYYCARSQYGRYYSPDYYFDYWGQGTLVTVSS VL: DIQMTQSPSSLSASVGDRVTITCRASGALGFYLNWYQQKPGKAPKLLIYAASSLSSGVPSRFSGSGSGTDFTLTISSLQPEDFATYYCQQGRTYPFTFGQGTKVEIKR |
| 186 | 5330 | 0.1 | 0.331 | 0.1 | 0.00358 |  | D029 HV3LV2 (bispecific antibody, V domains shown, also called D029L-Rev1:Q27G:P94Y:L96F/S55L:T30R:S32F) VH: EVQLVESGGGLVQPGGSLRLSCAASGFTFRWFFMSWVRQAPGKGLEWVSWIGPSGLYTDYADSVKGRFTISRDNSKNTLYLQMNSLRAEDTAVYYCARSQYGRYYSPDYYFDYWGQGTLVTVSS VL: DIQMTQSPSSLSASVGDRVTITCRASGALGFYLNWYQQKPGKAPKLLIYAASSLSSGVPSRFSGSGSGTDFTLTISSLQPEDFATYYCQQGRTYPFTFGQGTKVEIKR |
| 41 | 5630 | 0.331 | 0.1 | 0.0036 | > 0.1 |  | D029 HV5LV1 (bispecific antibody, V domains shown, also called Rev1/S55L:T30R:S32A) VH: EVQLVESGGGLVQPGGSLRLSCAASGFTFRWAFMSWVRQAPGKGLEWVSWIGPSGLYTDYADSVKGRFTISRDNSKNTLYLQMNSLRAEDTAVYYCARSQYGRYYSPDYYFDYWGQGTLVTVSS VL: DIQMTQSPSSLSASVGDRVTITCRASQALGFYLNWYQQKPGKAPKLLIYAASSLSSGVPSRFSGSGSGTDFTLTISSLQPEDFATYYCQQGRTPPLTFGQGTKVEIKR |
